Source: patent US20190016816A1 (APTEVO RESEARCH AND DEVELOPMENT, published 2019)

T1: FcγRIIa (CD32a His131) (UniProt P12318 34-317, limits assumed)
T1 construct: whole, on cells; allotype His131 as printed
T1 sequence (looked up): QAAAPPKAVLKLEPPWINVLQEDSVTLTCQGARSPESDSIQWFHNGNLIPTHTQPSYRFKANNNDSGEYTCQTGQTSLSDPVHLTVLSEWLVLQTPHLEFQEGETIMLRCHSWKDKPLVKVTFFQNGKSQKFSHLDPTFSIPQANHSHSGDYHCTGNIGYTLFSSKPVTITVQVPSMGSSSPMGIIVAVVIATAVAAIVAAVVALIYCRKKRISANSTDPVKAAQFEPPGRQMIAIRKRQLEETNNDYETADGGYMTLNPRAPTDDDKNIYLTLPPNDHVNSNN

T2: human 5T4 on cells (human, UniProt Q13641 32-420)
T2 sequence: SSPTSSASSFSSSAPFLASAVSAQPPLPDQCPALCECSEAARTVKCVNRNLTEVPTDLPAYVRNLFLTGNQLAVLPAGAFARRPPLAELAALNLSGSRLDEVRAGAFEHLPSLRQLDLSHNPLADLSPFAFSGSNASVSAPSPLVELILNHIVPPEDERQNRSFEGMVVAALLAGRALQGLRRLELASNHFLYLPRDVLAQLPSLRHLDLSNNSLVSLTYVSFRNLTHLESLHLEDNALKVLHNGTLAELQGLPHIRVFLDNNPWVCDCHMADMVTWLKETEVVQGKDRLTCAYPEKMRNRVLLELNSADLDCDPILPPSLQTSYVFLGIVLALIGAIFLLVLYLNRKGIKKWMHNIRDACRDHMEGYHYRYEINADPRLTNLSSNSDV


Assays:
[1] = target: T3, human CD137 on cells (human, UniProt Q07011 24-255); experiment: cell-based or functional assay
T3 sequence (Q07011 24-255 limits assumed): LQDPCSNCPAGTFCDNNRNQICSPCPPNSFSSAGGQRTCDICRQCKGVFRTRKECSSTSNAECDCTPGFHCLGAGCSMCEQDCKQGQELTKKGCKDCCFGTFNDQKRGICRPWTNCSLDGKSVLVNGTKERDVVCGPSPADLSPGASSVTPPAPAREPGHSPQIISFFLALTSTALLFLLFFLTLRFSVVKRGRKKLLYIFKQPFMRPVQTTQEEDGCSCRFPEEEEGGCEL

[2] = target: T1, FcγRIIa (CD32a His131); experiment: flow cytometry, CHO cells stably expressing CD32a His131, fluorescent anti-human IgG secondary, MFI (mean)
Description: (§1) ALG.APV-210 contains mutations introduced to prevent interaction with Fcγ receptors (FcγR) that could lead to FcγR-mediated T-cell activation or ADCC, ADCP, CDC etc. Binding of ALG.APV-210 was therefore tested on CHO cell transfectants stably expressing the following FcγR: FcγRI (CD64), FcγRIIa (CD32a His131), FcγRIIb (CD32b), FcγRIIIa (CD16a Val158 and CD16a Phe158), and FcγRIIIb (CD16b). Untransfected CHO cells were used as negative control. A control human IgG1 molecule was used as a positive control. Different concentrations of ALG.APV-210 or control IgG1 were incubated with the FcγR-expressing cell lines, washed, and labeled with a secondary anti-human IgG reagent. Binding of ALG.APV-210 and the control IgG1 was detected by flow cytometry.

[3] = target: T2, human 5T4 on cells; experiment: cell-based or functional assay
[4] = target: T4, FcγRIIIa (CD16a Phe158) (UniProt P08637 17-254, limits assumed); experiment: flow cytometry, CHO cells stably expressing CD16a Phe158, fluorescent anti-human IgG secondary, MFI (mean)
T4 construct: whole, on cells; allotype Phe158 as printed
T4 sequence (P08637 17-254 limits assumed): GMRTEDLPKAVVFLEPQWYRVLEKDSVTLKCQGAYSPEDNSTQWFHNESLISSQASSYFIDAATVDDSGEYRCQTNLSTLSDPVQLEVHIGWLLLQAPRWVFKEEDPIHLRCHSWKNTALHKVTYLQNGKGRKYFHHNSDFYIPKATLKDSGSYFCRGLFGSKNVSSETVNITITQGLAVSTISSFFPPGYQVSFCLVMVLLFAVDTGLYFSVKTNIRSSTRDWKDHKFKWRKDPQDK
Description: as §1

[5] = target: cynomolgus CD137 on cells (cynomolgus macaque, UniProt A9YYE7 24-254); experiment: cell-based or functional assay
Sequence of cynomolgus CD137 on cells (A9YYE7 entry or part of it): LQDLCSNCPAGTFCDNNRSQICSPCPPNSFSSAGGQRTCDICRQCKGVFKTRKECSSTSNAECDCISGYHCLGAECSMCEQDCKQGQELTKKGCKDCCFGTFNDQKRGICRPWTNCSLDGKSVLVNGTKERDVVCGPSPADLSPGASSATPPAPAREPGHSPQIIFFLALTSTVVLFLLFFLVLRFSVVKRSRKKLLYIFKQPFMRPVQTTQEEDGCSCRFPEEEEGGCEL

[6] = target: T3, human CD137 on cells; experiment: cell-based or functional assay; remark: listed apart in the source
[7] = target: T2, human 5T4 on cells; experiment: flow cytometry, CT26 cells transfected with human 5T4 (intermediate clone), biotinylated ALG.APV-210 + streptavidin-PE, 1 of 2 experiments
Procedure: (§2) Prior to the FACS staining, all cell lines were characterized for their 5T4 expression levels using a receptor density kit (Quantum Simply Cellular, anti-human IgG, Bangs Laboratories, Inc). Adherent cell lines were cultured according to their supplier's instructions and were harvested from their cell culture flasks using Trypsin/EDTA, counted in R10 medium in a Burker chamber, and diluted in FACS buffer (PBS+0.5% BSA, 0.05% NaN₃) to a concentration of 4×10⁶ cells/mL. 50 μL (0.20×10⁶) of cell solution was added to a 96-well FACS staining plate (Falcon #351190). Cells were incubated for 20 min in 4° C. with 50 μL of the biotinylated ALG.APV-210 (2× final concentration). The antibodies were added in a serial dilution starting at 20 μg/mL titrating down in a 12 step ½ dilution down to 0.010 μg/mL. […] Cells were analysed for ALG.APV-210 binding using flow cytometry (FACSVerse) by gating on single cells. MFI values (secondary antibody only subtracted) from 1 out of 2 independent experiments, as well as normalized data and EC₅₀-values of pooled data from 2 experiments were determined and plotted using GraphPad Prism 7, non-linear regression log (agonist) vs. normalized response—variable slope.
The binding (EC₅₀) of the biotinylated ALG.APV-210 to 5T4 when expressed on cells, either at endogenous levels on human tumor cells or on cells transfected to express 5T4 was assessed. […]

[8] = target: T2, human 5T4 on cells; experiment: flow cytometry, CT26-hu5T4^int cells, streptavidin-PE, normalized MFI of 2 pooled experiments
Procedure: as §2, with “μg/mL. Following 2× washing with FACS buffer, cells were incubated for 30 min in 4° C. with 100 μL of a secondary antibody (streptavidin-PE, BD #554061, diluted 1/500).” for “μg/mL.”

[9] = target: T2, human 5T4 on cells; experiment: flow cytometry, BxPC-3 cells, streptavidin-PE, normalized MFI of 2 pooled experiments
Procedure: as §2, with “μg/mL. Following 2× washing with FACS buffer, cells were incubated for 30 min in 4° C. with 100 μL of a secondary antibody (streptavidin-PE, BD #554061, diluted 1/500).” for “μg/mL.”

| EC50 (nM), CD137 reporter assay with CHO/5T4 cells [1] [nM] | EC50 (nM), CD137 reporter assay with H1975 cells [1] [nM] | EC50 (nM), CD137 reporter assay with MDA.MB-231 cells [1] [nM] | EC50 (nM), CD137 reporter assay with TF-1 cells [1] [nM] | binding result [2] | EC50 (nM), IFNγ release of human CD8 T cells with CT26-h5T4^high cells [3] [nM] | EC50 (nM), IFNγ release of human CD8 T cells with CT26-h5T4^low cells [3] [nM] | binding result [4] | EC50 (nM), IFNγ release of cynomolgus CD8 T cells on plate immobilized 5T4-Fc and anti-CD3 [5] [nM] | EC50 (nM), IFNγ release of human CD8 T cells on plate immobilized 5T4-Fc and anti-CD3 [6] [nM] | Binder | EC50 (read off the curve) [7] [nM] | EC50 [8] [nM] | EC50 [9] [nM] |
| --- | --- | --- | --- | --- | --- | --- | --- | --- | --- | --- | --- | --- | --- |
| 0.0092 | 0.037 | 0.054 | 0.063 | no binding (tested: 1000 nM) | 0.41 | 0.24 | no binding (tested: 1000 nM) | 0.4 | 0.2 | ALG.APV-210 (bispecific antibody, Optimized ADAPTIR scFv-Fc-scFv homodimer with stabilizing disulfide in the 1210 scFv; also called 5T4-CD137 bispecific antibody) EVQLLESGGGLVQPGGSLRLSCAASGFTFSHGSMYWVRQAPGKGLEWVSSISSGSGSTYYADSVKGRFTISHDNSKNTLYLQMNSLRAEDTAVYYCARSSYYGSYYSIDYWGQGTLVTVSSGGGGSGGGGSGGGGSGGGGSDIQMTQSPSSLSASVGDRVTITCRASQSISSYLNWYQQKPGKAPKLLIYAASSLQSGVPSRFSGSGSGTDFTLTISSLQPEDFATYYCQQYYDNLPTFGQGTKLEIKEPKSSDKTHTCPPCPAPEAAGAPSVFLFPPKPKDTLMISRTPEVTCVVVDVSHEDPEVKFNWYVDGVEVHNAKTKPREEQYNSTYRVVSVLTVLHQDWLNGKEYKCAVSNKALPAPIEKTISKAKGQPREPQVYTLPPSRDELTKNQVSLTCLVKGFYPSDIAVEWESNGQPENNYKTTPPVLDSDGSFFLYSKLTVDKSRWQQGNVFSCSVMHEALHNHYTQKSLSLSPGSGGGGSGGGGSGGGGSPSEVQLLESGGGLVQPGGSLRLSCAASGFTFSSYAMSWVRQAPGKCLEWVSAISGSGGSTYYADSVKGRFTISRDNSKNTLYLQMNSLRAEDTAVYYCARYYGGYYSAWMDYWGQGTLVTVSSGGGGSGGGGSGGGGSGGGGSDIQMTQSPSSLSASVGDRVTITCRASQSISSFLNWYQQKPGKAPKLLIYAASSLQSGVPSRFSGSGSGTDFTLTISSLQPEDSATYYCQQTYGYLHTFGCGTKLEIKR |  |  |  |
|  |  |  |  |  |  |  |  |  |  | biotinylated ALG.APV-210 (bispecific antibody, also called ALG.APV-210 (biotinylated for FACS detection)) EVQLLESGGGLVQPGGSLRLSCAASGFTFSHGSMYWVRQAPGKGLEWVSSISSGSGSTYYADSVKGRFTISHDNSKNTLYLQMNSLRAEDTAVYYCARSSYYGSYYSIDYWGQGTLVTVSSGGGGSGGGGSGGGGSGGGGSDIQMTQSPSSLSASVGDRVTITCRASQSISSYLNWYQQKPGKAPKLLIYAASSLQSGVPSRFSGSGSGTDFTLTISSLQPEDFATYYCQQYYDNLPTFGQGTKLEIKEPKSSDKTHTCPPCPAPEAAGAPSVFLFPPKPKDTLMISRTPEVTCVVVDVSHEDPEVKFNWYVDGVEVHNAKTKPREEQYNSTYRVVSVLTVLHQDWLNGKEYKCAVSNKALPAPIEKTISKAKGQPREPQVYTLPPSRDELTKNQVSLTCLVKGFYPSDIAVEWESNGQPENNYKTTPPVLDSDGSFFLYSKLTVDKSRWQQGNVFSCSVMHEALHNHYTQKSLSLSPGSGGGGSGGGGSGGGGSPSEVQLLESGGGLVQPGGSLRLSCAASGFTFSSYAMSWVRQAPGKCLEWVSAISGSGGSTYYADSVKGRFTISRDNSKNTLYLQMNSLRAEDTAVYYCARYYGGYYSAWMDYWGQGTLVTVSSGGGGSGGGGSGGGGSGGGGSDIQMTQSPSSLSASVGDRVTITCRASQSISSFLNWYQQKPGKAPKLLIYAASSLQSGVPSRFSGSGSGTDFTLTISSLQPEDSATYYCQQTYGYLHTFGCGTKLEIKR | ~10 | 12 | 20 |
